Measurements as given in patent US20120204273A1, “COMPOSITIONS RELATING TO A PHOSPHOPROTEIN AND METHODS OF USE” (SANFORD-BURNHAM MEDICAL RESEARCH INSTITUTE, priority 2010, published 2012).
Changes are numbered by the printed parent chain.

Legend:
3T3-L1 adipocytes = assay: myc-GLUT4-GFP translocation to the cell surface; assay type: cell-based, mouse; settings: insulin 100 nM, 30 min
Method: FIG. 2, panels A-C show knockdown of CDP138 in 3T3-L1 adipocytes inhibits insulin-stimulated glucose transport (A) and myc-GLUT4-GFP translocation (B), but not endogenous GLUT4 movement to the periphery detected in TIRF zone (C). (A): Differentiated adipocytes at day 5 were transfected with siRNAs against mouse 5730419I09Rik or the scrambled siRNA (Scr) as described earlier (Jiang et al., 2003) for 60 hrs, then serum starved overnight. Cells were then treated with or without insulin (1 nM and 100 nM) for 30 min for the glucose uptake assay, or 15 min for immunoblotting of CDP138, pAkt, Akt and β-actin. Glucose transport data are presented as mean±SD of 4 independent experiments. *P<0.05 vs Scr Insulin (1 nM) group; **P<0.01 vs Scr Insulin (100 nM) group. (B): Day 5 adipocytes were transfected with siRNAs and myc-GLUT4-GFP for 60 hrs and then serum starved overnight. Cells were then treated with insulin (1 nM) for 20 min. Cell surface Myc-GLUT4-GFP was detected with anti-myc monoclonal Ab (9E10) and Alexa Fluor 568-labeled goat anti-mouse IgG in non-permeablized cells. The Myc signal and GFP signal were quantified as previously described (Jiang et al., 2002). Data presented are representative microscopic images and mean±SD of about 160 GFP-positive cells in each group from three independent experiments. **P<0.01 vs Scr Insulin (1 nM) group. […] GLUT4 was detected with a goat anti-GLUT4 Ab and Alexa Fluor 488-conjugated donkey anti-goat Ab in permeabilized cells. Top and middle panels show 100 nm TIRF zone and representative GLUT4 TIRFM images, respectively. Data are mean±SD of 3 independent experiments. **P<0.01 vs Scr Insulin groups.
GLUT4 translocation detection with wide field fluorescence and TIRF microscopy: Both wide field and TIRF microscopy were used to detect myc-GLUT4-GFP translocation to the cell surface as previously described (Jiang et al., 2002) and herein.
To test the effect of RNAi-induced gene specific knockdown of CDP138 or overexpression of CDP138 mutants on GLUT4 translocation, siRNAs or CDP138 constructs were transfected into adipocytes together with myc-GLUT4-GFP by electroporation as previously described (Jiang et al, 2003). […] Cells were washed with cold PBS, fixed with 4% formaldehyde and immunostained. Briefly, for siRNA study, the cell surface Myc-GLUT4-GFP was visualized with mouse anti-Myc Ab (9E10) and AlexaFluoro568-labeled goat anti-mouse secondary Ab (Invitrogen) in PBS containing 1% FBS. After washing, the coverslip were mounted with Prolong antifade reagent (Invitrogen, Eugene Oreg.). Fluorescence microscopy was carried as described below. Then, images were acquired with wide field microscopy as described below. For the study with overexpressed HAtagged CDP138 constructs, the cell surface Myc-GLUT4-GFP was visualized with rabbit anti-Myc Ab (Cell signaling, Inc) and AlexaFluoro568-labeled goat anti-rabbit secondary Ab (InVitrogen) in PBS containing 1% FBS. Cells were further permeabilized with PSB containing 0.5% Tween-20, and HA-tagged protein was detected with a mouse anti-HA epitope primary Ab followed by AlexaFluoro-350-labelled goat anti-mouse IgG. Insulin-induced myc-GLUT4 accumulation (AlexaFluoro-568 signal) within the evanescence excitation field (100 nm from dorsal membrane) in transfected adipocytes was measured with a Nikon Eclipse-Ti microscope equipped with a CoolSNAP HQ2 camera and laser scanning TIRF capacity. Total GLUT4-GFP signals and […] Alexa Fluoro-350 signals were acquired with wide field imaging to identify double-transfected cells. The ratio of myc-GLUT4 signal in the TIRF zone to the total Epi-GFP signal in wide field was used as a measure of GLUT4 translocation to the cell surface.
Image Analysis and Quantification: TIRF and wide field fluorescence microscopy were performed using a Nikon inverted microscope (Melville, N.Y.) with a cooled charge-coupled device camera. […]

CHO-T cells = assay: Cell division of CHO-T cells overexpressing HA-CDP138; assay type: cell-based
Source text: Large cells bodies with multiple nuclei were formed in HA-tagged CDP138 positive CHO-T cells.
HA-CDP138 positive cell is 3-5 times bigger than HA-negative cells (FIG. 14).

PC12 cells [1] = assay: Survival of differentiated PC12 neuronal cells under serum starvation; assay type: cell-based; settings: for cell death / survival after 24 hours of starvation / cell death within 14 hours of starvation: transfected 24 h, NGF 24 h, serum starved
Method: Cells were serum starved for 6 hours (6 H), 14 hours (14 H) or 24 hours (24 H) before counting the number of cells in two wells.
Cells were serum starved for 24 hours before counting the number of bid surviving differentiated neuronal cells in two wells.
In order to determine the affects of CDP138 of neuronal cell survival, PC12 cells were transfected with wild-type CDP138-WT vector, dominant negative mutant CDP138-5DA vector or an empty vector for 24 h followed by adding NGF (neuron growth factor) for 24 h. Then cells were serum starved for 6 hours, 14 hour, and 24 hour before counting cell number in 2 wells.
(§1) In addition to counting the total number of cells that survived, the number of big surviving differentiated neuronal cells were also assessed following 24 hours of starvation. […] This was a 50% increase in the number of big differentiated cells.

PC12 cells [2] = assay: NGF-induced neurite outgrowth in PC12 cells; assay type: cell-based
Method: FIG. 13, panels A and B, show the expression pattern of CDP138 in various tissues and the effects of overexpressed wild-type and mutant CDP138 in neuronal growth factor (NGF)-induced neurite outgrowth in PC12 cells. A: CDP138 is highly expressed in the brain and distributed in the neurite and synapse of neuronal cells. 30 μg of total protein was assayed for all tissues, except only 15 μg of total protein from brain tissue was assayed in the immunoblotting of panel A. Exemplary protein distribution of CDP138-mCherry in a PC12 cell is also shown. B: Overexpressed CDP138-WT enhances neurite growth, whereas the CDP138-5DA mutant had the opposite effect.
as §1

B1: HA-CDP138-WT: full-length human KIAA0528 (CDP138) tagged with 3HA epitope at the N-terminus, pCMV5 vector (protein)
chain: MPGKLKVKIVAGRHLPVMDRASDLTDAFVEVKFGNTTFKTDVYLKSLNPQWNSEWFKFEVDDEDLQDEPLQITVLDHDTYSANDAIGKVYIDIDPLLYSEAATVISGWFPIYDTIHGIRGEINVVVKVDLFNDLNRFRQSSCGVKFFCTTSIPKCYRAVIIHGFVEELVVNEDPEYQWIDRIRTPRASNEARQRLISLMSGELQRKIGLKVLEMRGNAVVGYLQCFDLEGESGLVVRAIGTACTLDKLSSPAAFLPACNSPSKEMKEIPFNEDPNPNTHSSGPSTPLKNQTYSFSPSKSYSRQSSSSDTDLSLTPKTGMGSGSAGKEGGPFKALLRQQTQSALEQREFPFFTLTAFPPGFLVHVGGVVSARSVKLLDRIHNPDEPETRDAWWAEIRQEIKSHAKALGCHAVVGYSESTSICEEVCILSASGTAAVLNPRFLQDGTVEGCLEQRLEENLPTRCGFCHIPYDELNMPFPAHLTYCYNCRKQKVPDVLFTTIDLPTDATVIGKGCLIQARLCRLKKKAQAEANATAISNLLPFMEYEVHTQLMNKLKLKGMNALFGLRIQITVGENMLMGLASATGVYLAALPTPGGIQIAGKTPNDGSYEQHISHMQKKINDTIAKNKELYEINPPEISEEIIGSPIPEPRQRSRLLRSQSESSDEVTELDLSHGKKDAFVLEIDDTDAMEDVHSLLTDVPPPSGFYSCNTEIMPGINNWTSEIQMFTSVRVIRLSSLNLTNQALNKNFNDLCENLLKSLYFKLRSMIPCCLCHVNFTVSLPEDELIQVTVTAVAITFDKNQALQTTKTPVEKSLQRASTDNEELLQFPLELCSDSLPSHPFPPAKAMTVEKASPVGDGNFRNRSAPPCANSTVGVVKMTPLSFIPGAKITKYLGIINMFFIRETTSLREEGGVSGFLHAFIAEVFAMVRAHVAALGGNAVVSYIMKQCVFMENPNKNQAQCLINVSGDAVVFVRESDLEVVSSQQPTTNCQSSCTEGEVTT
With B1 the “effect of overexpression on insulin-stimulated myc-GLUT4-GFP translocation (TIRF myc / Epi GFP)” value (3T3-L1 adipocytes) was “did not significantly alter”, the “size of positive cells relative to HA-negative cells” value (CHO-T cells) was 3-5 times and the “positive cells with big multiple nuclei” value (CHO-T cells; three different experiments) was “about 24.6%”.

B2: CDP138-5DA: dominant negative mutant CDP138-5DA vector transfected into PC12 cells (protein, UniProt Q86YS7 1-1000, looked up, variant D19A D26A D76A D78A D84A)
C2 domain-containing protein 5: B1 chain with D19A, D26A, D76A, D78A, D84A
In the case of B2, the “number of big differentiated neuronal cells per well” value (PC12 cells [1]; 24 hours of starvation) is reported as “did not form any”, the “cell death / survival after 24 hours of starvation” value (PC12 cells [1]) is reported as “the highest amount of cell death” and the “cell death within 14 hours of starvation” value (PC12 cells [1]) is reported as “significant cell death”. For the same molecule, the “increase in cell body length (fold over cell body length, NGF-induced neurite outgrowth)” value (PC12 cells [2]) was “approximately 1 fold”.

B3: CDP138-WT: wild-type CDP138 vector transfected into PC12 cells (protein, UniProt Q86YS7 1-1000, looked up)
C2 domain-containing protein 5: B1 chain
With B3 the “increase in the number of big differentiated cells over empty vector” value (PC12 cells [1]; 24 hours of starvation) was 50%, the “number of big differentiated neuronal cells per well” value (PC12 cells [1]; 24 hours of starvation) was “approximately 1650 per well” and the “cell death / survival after 24 hours of starvation” value (PC12 cells [1]) was “continued to survive”. The “cell death within 14 hours of starvation” value (PC12 cells [1]) was “no appreciable cell death” and the “increase in cell body length (fold over cell body length, NGF-induced neurite outgrowth)” value (PC12 cells [2]) was roughly 4 fold.
